Results reported in article PMC9150345.

What was measured:
[1] = biological target: hTBPQ80, hTBP with an extension of 80 glutamine residues (amino acids 50-142), fused to the N-terminal fragment of Venus (human) (UniProt P20226); test: split reporter (BiFC, NanoBiT); BiFC in HEK293 cells co-transfected with VC- and VN- constructs and pCAG-mCherry; read 48 h after transfection; interaction percent = green cells per 100 red cells
[2] = biological target: Antp-hTBP heterodimer (VCAntp-VNTBP, Venus reconstituted by BiFC) (Drosophila | human) (UniProt P02833)
Antp-hTBP heterodimer (VCAntp-VNTBP, Venus reconstituted by BiFC) (Drosophila | human), sequence (P02833 whole entry, chain 1 of 2): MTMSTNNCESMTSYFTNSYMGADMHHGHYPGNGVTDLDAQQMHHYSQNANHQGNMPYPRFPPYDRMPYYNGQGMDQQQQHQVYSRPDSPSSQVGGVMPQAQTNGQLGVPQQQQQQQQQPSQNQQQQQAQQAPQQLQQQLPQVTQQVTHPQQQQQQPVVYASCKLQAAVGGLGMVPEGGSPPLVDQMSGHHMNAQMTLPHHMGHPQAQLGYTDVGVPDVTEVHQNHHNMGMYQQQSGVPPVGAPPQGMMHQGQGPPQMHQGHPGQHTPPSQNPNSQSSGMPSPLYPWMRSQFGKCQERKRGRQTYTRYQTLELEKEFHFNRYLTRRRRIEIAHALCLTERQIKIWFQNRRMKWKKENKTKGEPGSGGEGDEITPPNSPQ
Antp-hTBP heterodimer (VCAntp-VNTBP, Venus reconstituted by BiFC) (Drosophila | human), sequence (P20226 whole entry, chain 2 of 2, further chain): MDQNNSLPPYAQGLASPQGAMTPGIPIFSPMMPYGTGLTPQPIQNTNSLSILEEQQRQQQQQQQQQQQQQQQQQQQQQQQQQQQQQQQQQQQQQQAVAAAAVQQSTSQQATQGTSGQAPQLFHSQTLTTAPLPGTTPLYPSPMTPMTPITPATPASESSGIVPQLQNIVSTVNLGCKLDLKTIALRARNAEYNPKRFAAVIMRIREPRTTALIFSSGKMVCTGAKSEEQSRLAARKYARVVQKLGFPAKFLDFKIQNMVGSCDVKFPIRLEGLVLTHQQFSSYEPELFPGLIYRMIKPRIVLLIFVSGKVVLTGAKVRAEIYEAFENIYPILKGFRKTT

hTBPQ80, hTBP with an extension of 80 glutamine residues (amino acids 50-142), fused to the N-terminal fragment of Venus (human), sequence (P20226 whole entry, the tested form may be a part): as the sequence (P20226 whole entry, chain 2 of 2, further chain) above
AntpΔN, Antp lacking the N-terminal region (amino acids 1-269), fused to the C-terminal fragment of Venus, sequence (P02833 270-378, stated change not applied): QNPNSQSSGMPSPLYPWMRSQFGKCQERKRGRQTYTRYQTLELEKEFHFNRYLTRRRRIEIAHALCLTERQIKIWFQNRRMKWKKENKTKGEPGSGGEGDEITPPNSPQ
Antennapedia (Antp), fused to the C-terminal fragment of Venus, sequence (P02833 whole entry, the tested form may be a part): as the sequence (P02833 whole entry, chain 1 of 2) above

Row | Substance | percent of transfected cells showing BiFC [1] [%] | Antp transactivation on pGLH11 with co-expressed TBP and BIP2, percent of Antp alone (Fig. 5D) [2] [%]
1 | AntpΔN, Antp lacking the N-terminal region (amino acids 1-269), fused to the C-terminal fragment of Venus (from UniProt P02833 270-378) (domain or fragment) | 47 | –
2 | Bric-a-brac interacting protein BIP2 (2–89) fused to ECFP (from UniProt Q9XZU7 2-89) (domain or fragment) | – | 74
3 | Antennapedia (Antp), fused to the C-terminal fragment of Venus (from UniProt P02833 1-378) (natural protein) | 78 | –
